In article PMC5815094:

Legend:
Conditions in all cases: ES buffer: 10 mM Tris pH 8.0, 10 mM KCl, 40 mM NaCl, 1 mM MgCl2; MST + 0.05% Tween-20, room temperature; EMSA + 25 ng tRNA per 10 ul, 37 C 15 min (Fig 6D); NMR …
[1] = target: Hfq (Pseudomonas aeruginosa PAO1) (UniProt Q9HUM0); test: EMSA
[2] = target: Hfq;Crc (Pseudomonas aeruginosa PAO1;Pseudomonas aeruginosa PAO1) (UniProt Q9HUM0+Q51380); test: MST
[3] = target: Hfq (Pseudomonas aeruginosa PAO1) (UniProt Q9HUM0); test: MST

Row | Substance | binding [1] | Kd [2] [nM] | Kd [3] [nM]
1 | GGACUGGUCGCGAGGCCAGCAGGUAAGCUGAGAGACCAAGCAGUCGGACUCUUCAGAUUAUCUCCUCAUCAGGCUAAUCACGGUUUCGACCCGGCACUUUGCCGGGUCUUUUUUUG [PrrF2 sRNA] | binds |  | 
2 | PrrF2 sRNA |  | 35 | 6.7
